From article PMC7820495

Biological target: GST-SVIP (Drosophila SVIP, CG32039) (Drosophila) (UniProt Q8IQC6)
Experiment: pull-down; in vitro binding titration assay of GST-SVIP with MBP-VCP wild type and disease-relevant mutants; binding curves and affinities in Fig. 7b-e

Chain of GST-SVIP (Drosophila SVIP, CG32039) (Drosophila) (Q8IQC6 entry or part of it): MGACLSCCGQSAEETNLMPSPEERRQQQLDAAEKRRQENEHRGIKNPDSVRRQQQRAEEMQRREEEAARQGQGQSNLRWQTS

fold reduction of SVIP–VCP affinity against wild type: > 30 fold
Substance: MBP-VCP^P134L (Drosophila VCP) (from UniProt Q7KN62 1-801) (domain or fragment)
